Values quoted from earlier work as cited in PMC3018525.
Like-named read-outs stand apart in the source and are kept apart here.

What was measured:
EGF (Homo sapiens) [1] = molecular target: EGF (Homo sapiens) (UniProt P01133)
EGF (Homo sapiens) [2] = molecular target: EGF (Homo sapiens) (UniProt P01133); remark: listed apart in the source

Chain of UniProt P01133 (P01133 971-1023): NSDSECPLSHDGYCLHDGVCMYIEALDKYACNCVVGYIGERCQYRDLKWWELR

Row | Kd (EGF (Homo sapiens) [1]) | Kd (EGF (Homo sapiens) [2]) | Substance
1 | 0.3 nM |  | EGFR (high-affinity) (from UniProt P00533)
2 |  | 2 nM | EGFR (low-affinity) (from UniProt P00533)
